Measured values: the supplement of paper PMC10201428
± gives the standard deviation of the averaged measurements.

What was measured:
[1] = test system: VchCAST RNA-guided transposition machinery (E. coli BL21(DE3) host, lacZ target); test: relative integration efficiency (T-RL orientation) vs wild-type transposon end (log2 (normalized fold change)); transposon end mutated: right end (5 bp flank + 75 bp right end); higher = more efficient transposition
Procedure, shortened: (§1)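 Barcode abundances in input plasmids and in genomic integration junctions were obtained by PCR amplification and Illumina sequencing. These came from E. coli BL21(DE3) co-transformed with a T7-driven effector plasmid and a pUC57 donor carrying 1549 left-end or 1849 right-end transposon variants, then plated with 0.1 mM IPTG at 37°C for 18 h. Relative integration efficiency is the output/input fold change, normalised to reference barcodes and log-transformed.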

[2] = test system: VchCAST RNA-guided transposition machinery (E. coli BL21(DE3) host, lacZ target); test: relative integration efficiency (T-LR orientation) vs wild-type transposon end (log2 (normalized fold change)); transposon end mutated: right end (5 bp flank + 75 bp right end); higher = more efficient transposition
Procedure, shortened: as §1

Sequence	relative integration efficiency (log2) [1]	relative integration efficiency (log2) [2]
ACATTTGTTGATACAACCATATATTGATATCTCCAACCATAAGTTGATATTTTTCACACCCATAAATTGATATTGCCTCTGATCATAGTCAGACCAACATTGCTACGACCCGTATTCGCACCGACAC	-0.335 ± 0.081	-0.216 ± 0.018
ACATTTGTTGATACAACCATAAAATGAGCCGTACACCCATAAATTGATAATTATCACACCCATAAATTGATATTGCCTCTGATCATAGTCAGACCAACATTGCTACGACCCGTATTCGCACCGACAC	-0.359 ± 0.21	-0.26 ± 0.5
ACATTTGTTGATACAACCATAAAATGATCATTACCCCCATCAATTGATAATTATCACACCCAATTTAACTATAACGCTCTGATCATAGTCAGACCAACATTGCTACGACCCGTATTCGCACCGACAC	-3.35 ± 0.24	-0.291 ± 0.3
ACATTTGTTGATACAACCATAAGTTGATATTTTCAACCATATATTGATATCTCTCACAACCATATATTGATATCTCCTCTGATCATAGTCAGACCAACATTGCTACGACCCGTATTCGCACCGACAC	-0.28 ± 0.11	0.206 ± 0.098
ACATTTGTTGATACAACCATAAGTTGATATTTTCAACCATAAAGTGATATTTATCACAACCATAAAGTGATATTTACTCTGATCATAGTCAGACCAACATTGCTACGACCCGTATTCGCACCGACAC	0.0778 ± 0.073	-0.067 ± 0.078
ACATTTCTGGATACAACCATAAAATGATAATTACACCCATAAATTGATCATTATCACACCCAATTTAACTATAACGCTCTGATCATAGTCAGACCAACATTGCTACGACCCGTATTCGCACCGACAC	-2.77 ± 0.4	0.307 ± 0.3
ACATTTGTTGATCCAACCATAAAATGATAATTACACCCATAAATTCATCATTATCACACCCAATTTAACTATAACGCTCTGATCATAGTCAGACCAACATTGCTACGACCCGTATTCGCACCGACAC	-2.42 ± 0.5	1.23 ± 0.14
ACATTTGTTGATACAACCATAAAAGGATAATTACCCCCATCAATTGATAATTATCACACCCCATTTAACTATAACGCTCTGATCATAGTCAGACCAACATTGCTACGACCCGTATTCGCACCGACAC	-3.19 ± 0.27	-0.157 ± 0.13
ACATTTGTTGATACAACCATAAAATGATAATTACACCCATAAATTGCGCCGGCGACACAAACGCCCGGTCGCGGTAAGAGGATCATAGTCAGACCAACATTGCTACGACCCGTATTCGCACCGACAC	-1.38 ± 0.23	1.62 ± 0.053
ACATTTGTTGATACCACCATCAAATGATAATTACACCCCTACATTGATAATTATCACACCCAATTTAACTATAACGCTCTGATCATAGTCAGACCAACATTGCTACGACCCGTATTCGCACCGACAC	-5.58 ± 0.31	-2.42 ± 0.59
ACATTTGTTCATACAACCCTAAAATGATAATTACACCCATAAATTGATAATTATCACACCCAATTTAACTATAACGCTCTGATCATAGTCAGACCAACATTGCTACGACCCGTATTCGCACCGACAC	-2.24 ± 0.22	-1.03 ± 0.5
ACATTTGTTGATACAACCATAAAACGATAATTACACCCATAAATTCATCATTATCACACCCAATTTAACTATAACGCTCTGATCATAGTCAGACCAACATTGCTACGACCCGTATTCGCACCGACAC	-2.21 ± 0.32	1.29 ± 0.12
ACATTTGTTCATACAACCCTAAAATGATAATTACACCCATAAATTGATCATTATCACACCCAATTTAACTATAACGCTCTGATCATAGTCAGACCAACATTGCTACGACCCGTATTCGCACCGACAC	-3.41 ± 0.23	-1.36 ± 0.72
ACATTTGTTGATACAACCATAAAATGCGAATTACACCCATAAATTGATAATTATCACACCCATAAATTGATATTGCCTCTGATCATAGTCAGACCAACATTGCTACGACCCGTATTCGCACCGACAC	-0.945 ± 0.22	-0.35 ± 0.095
ACATTTGTTGATACAACCATAAAATGATAATTAATAATTACACCCATAAATTGATAATTATCACACCCATAAATTGATATTGCCTCTGATCATAGTCAGACCAACATTGCTACGACCCGTATTCGCA	-3.12 ± 0.2	0.0363 ± 0.21
CAAAATGTAAAAAAAACCATACGTTGATTTTACGAAACCATACGCTGAAATAAAAACACCCATAAATTGATATTGCTTATAAAGTGTACAACACTTGAGAAAGTTTACTACAGGTATGCACCGACAC	-8.17 ± 0.95	< -10
ACATTTGTTGATACAACCATCAAATGATAATTCCACCCATACATTGATAATTATCACACCCAATTTAACTATAACGCTCTGATCATAGTCAGACCAACATTGCTACGACCCGTATTCGCACCGACAC	-3.05 ± 0.042	-0.154 ± 0.093
ACATTTGTTGATACAACCATAAAATGATAAAATGACCCATAAATTGATAATTATCACACCCATAAATTGATATTGCCTCTGATCATAGTCAGACCAACATTGCTACGACCCGTATTCGCACCGACAC	-0.49 ± 0.13	0.143 ± 0.81

Sequence	relative integration efficiency (log2) [1]	relative integration efficiency (log2) [2]
ACATTTGTTGATACAACCATAAAATGATAATTACACCCATAAATTGATAATTATCACACCCATAAATTGATATTGCCTCTGCAACCATAAAATGATAATTAATCATAGTCAGACCAAGCACCGACAC	-0.336 ± 0.3	-0.129 ± 0.36
ACATTTGTTGATACAACCATAAAATGATAATTACCACCCCTACATTGATAATTATCACACCCATTTAACTATAACGCTCTGATCATAGTCAGACCAACATTGCTACGACCCGTATTCGCACCGACAC	-3.12 ± 0.17	-0.0894 ± 0.12
ACATTTGTTGATACACCCATAAATTGATATTGCCACCCATAAATTGATAATTATCACAACCATATATTGATATCTCCTCTGATCATAGTCAGACCAACATTGCTACGACCCGTATTCGCACCGACAC	-1.14 ± 0.14	-0.478 ± 0.18
ACATTTGTTGATACAACCATAAAATGATAATTACACCCATAAATTGATAATTATCACACCCATAAATTGATATTGCCTCTGTACCGTTCGTATACGATACATTATACGAAGTTATTCGCACCGACAC	-1.24 ± 0.29	1.66 ± 0.14
ACATTTGTTGATACAACCATAAAATGATCCGGCACAAACGCCCGGTCGCCGGCGACACAAACGCCCGGTCGCGGTAAGAGGATCATAGTCAGACCAACATTGCTACGACCCGTATTCGCACCGACAC	-2.68 ± 0.12	0.37 ± 0.064
ACATTTGTTGATACAACGTATAAATGATAATTACACCCATAAATTGATAATTATCACACCCATAAATTGATATTGCCTCTGATCATAGTCAGACCAACATTGCTACGACCCGTATTCGCACCGACAC	-1.91 ± 0.13	-2.43 ± 0.46
ACATTTGTTGATACACCCATAAATTGATAATTACACCCATAAATTGATAATTATCACAACCATATATTGATATCTCCTCTGATCATAGTCAGACCAACATTGCTACGACCCGTATTCGCACCGACAC	-0.596 ± 0.21	-0.271 ± 0.04
ACATAAGTTGATACAACCATAAAATGATAATTACACCCATAAATTGATAATTATCACACCCATAAATTGATATTGCCTCTGATCATAGTCAGACCAACATTGCTACGACCCGTATTCGCACCGACAC	-6.621 ± 0.045	-4.25 ± 0.29
ACATTAGTGGATACAACCATAAAATGATAATTACACCCATAAATGGATAATTATCACACCCAATTTAACTATAACGCTCTGATCATAGTCAGACCAACATTGCTACGACCCGTATTCGCACCGACAC	-7.08 ± 1.1	-5.46 ± 0.48
ACATTTGTTGATACAACCATAAAAGGATAATTCACCCATAAATTGATAATTATCACACCCACATTTAACTATAACGCTCTGATCATAGTCAGACCAACATTGCTACGACCCGTATTCGCACCGACAC	-2.38 ± 0.38	0.902 ± 0.15
ACATTTGTTGATACAACCATAAAATGATAATTACACCCATAAATTGATAATTATCACACCGTATAATTGATATTGCCTCTGATCATAGTCAGACCAACATTGCTACGACCCGTATTCGCACCGACAC	-0.648 ± 0.21	2.25 ± 0.06
ACATTTGTTGATACAACCATAAAATGCGCCTTACACCCATAAATTGATAATTATCACACCCATAAATTGATATTGCCTCTGATCATAGTCAGACCAACATTGCTACGACCCGTATTCGCACCGACAC	-1.4 ± 0.083	-1.01 ± 0.31
ACATTTGTTGATACAACCATTAAATGATAATTCCACCCTTAAATTGATAATTATCACACCCAATTTAACTATAACGCTCTGATCATAGTCAGACCAACATTGCTACGACCCGTATTCGCACCGACAC	-2.08 ± 0.36	0.973 ± 0.22
ACATTAGTTGATACAACCATAAAATGATAATTACACCCATAAATTCATCATTATCACACCCAATTTAACTATAACGCTCTGATCATAGTCAGACCAACATTGCTACGACCCGTATTCGCACCGACAC	-7.83 ± 0.12	-4.99 ± 0.51
ACATTTGTTGATCCAACCATAAAATGATAATTACACCCATAAATGGATAATTATCACACCCAATTTAACTATAACGCTCTGATCATAGTCAGACCAACATTGCTACGACCCGTATTCGCACCGACAC	-1.51 ± 0.15	1.15 ± 0.043
ACATTTGTTGATACAACCATAAAATGATAATTACACCCATAAATTGATAATTATCACACCCATAAATTGATATTGCCTCTGATCAATATGTAACCAAAAGTAAAATAGTCAGACCAAGCACCGACAC	-0.295 ± 0.29	0.023 ± 0.042
ACATTTGTGGATACAACCCTAAAATGATAATTACACCCATAAATTCATCATTATCACACCCAATTTAACTATAACGCTCTGATCATAGTCAGACCAACATTGCTACGACCCGTATTCGCACCGACAC	-4.92 ± 0.15	-1.67 ± 0.21
